Source: PMC6555819, “Comprehensive study of nuclear receptor DNA binding provides a revised framework for understanding receptor specificity”
Residue numbers refer to the chain shown, from its start.

B1: NRC3_wobSeed125_DR5_A30G_o1 (dsDNA)
DNA 1: GCCCTTACGGGTCACTGACAGGTTATAGCGTTTGGAGCGATTGACAGCGTAGAATGAAGG
DNA 2: CCTTCATTCTACGCTGTCAATCGCTCCAAACGCTATAACCTGTCAGTGACCCGTAAGGGC
B2: NRC3_wobSeed49_DR2_G11T_o1 (dsDNA)
DNA 1: GCCAAACTAGTTCAAGAGGTCAAAGTCCGCTTCCCGGCGATTGACAGCGTAGAATGAAGG
DNA 2: CCTTCATTCTACGCTGTCAATCGCCGGGAAGCGGACTTTGACCTCTTGAACTAGTTTGGC
B3: NRC3_random_hg19_83_o1 (dsDNA)
DNA 1: GCGCTGTACATGATGTGGCCTCCCAGCCCAGGATCTGCGATTGACAGCGTAGAATGAAGG
DNA 2: CCTTCATTCTACGCTGTCAATCGCAGATCCTGGGCTGGGAGGCCACATCATGTACAGCGC
B4: NRC3_wobSeed42_DR1_G9A_o1 (dsDNA)
DNA 1: GCTATACAAGGTCAAAGGCCAGAGTACGAATGTCGAGCGATTGACAGCGTAGAATGAAGG
DNA 2: CCTTCATTCTACGCTGTCAATCGCTCGACATTCGTACTCTGGCCTTTGACCTTGTATAGC
B5: NRC3_wobSeed104_DR4_A11G_o1 (dsDNA)
DNA 1: GCTCTTGTAGGTCAATAGAGGTTAAGAAAGTGCGCTGCGATTGACAGCGTAGAATGAAGG
DNA 2: CCTTCATTCTACGCTGTCAATCGCAGCGCACTTTCTTAACCTCTATTGACCTACAAGAGC
B6: NRC3_wobSeed105_DR4_A13T_o1 (dsDNA)
DNA 1: GCATCTCTAGGTTAAGATAGTTCAGTGAATGCAAATGCGATTGACAGCGTAGAATGAAGG
DNA 2: CCTTCATTCTACGCTGTCAATCGCATTTGCATTCACTGAACTATCTTAACCTAGAGATGC
B7: NRC3_wobSeed136_DR5_G5C_o1 (dsDNA)
DNA 1: GCTACCCTAGGTCATTCAGGGGCCAGTATAGAAAGCGCGATTGACAGCGTAGAATGAAGG
DNA 2: CCTTCATTCTACGCTGTCAATCGCGCTTTCTATACTGGCCCCTGAATGACCTAGGGTAGC
B8: NRC3_wobSeed136_DR5_G26C_o1 (dsDNA)
DNA 1: B7 DNA 1 with C5G, G26C
DNA 2: B7 DNA 2 with C35G, G56C
B9: NRC3_random_hg19_332_o1 (dsDNA)
DNA 1: GCTTGTCCTCAGCCTCCTGAGCAGCTGGGACTATAGGCGATTGACAGCGTAGAATGAAGG
DNA 2: CCTTCATTCTACGCTGTCAATCGCCTATAGTCCCAGCTGCTCAGGAGGCTGAGGACAAGC
B10: NRC3_wobSeed137_DR5_T27C_o1 (dsDNA)
DNA 1: GCATATGTAGGTTACATCCGGGTCATCCAGGCTATGGCGATTGACAGCGTAGAATGAAGG
DNA 2: CCTTCATTCTACGCTGTCAATCGCCATAGCCTGGATGACCCGGATGTAACCTACATATGC
B11: NRC3_wobSeed113_DR4_G19A_o1 (dsDNA)
DNA 1: GCATATGTAGGTTAGCTGAGGTCATTCAGACTAGGCGCGATTGACAGCGTAGAATGAAGG
DNA 2: CCTTCATTCTACGCTGTCAATCGCGCCTAGTCTGAATGACCTCAGCTAACCTACATATGC
B12: NRC3_random_hg19_263_o1 (dsDNA)
DNA 1: GCGCTGGGTAGATCTGCCACTGAAGCCTACATGGAGGCGATTGACAGCGTAGAATGAAGG
DNA 2: CCTTCATTCTACGCTGTCAATCGCCTCCATGTAGGCTTCAGTGGCAGATCTACCCAGCGC
B13: NRC3_wobSeed76_DR3_o1 (dsDNA)
DNA 1: GCCCTACTGGGCCAAAAAGGTCATTGATGCCGATAAGCGATTGACAGCGTAGAATGAAGG
DNA 2: CCTTCATTCTACGCTGTCAATCGCTTATCGGCATCAATGACCTTTTTGGCCCAGTAGGGC
B14: NRC3_wobSeed109_DR4_A19G_o1 (dsDNA)
DNA 1: GCCGTCCAAGGTCATAGGGGGTCAGTGAAGACAGATGCGATTGACAGCGTAGAATGAAGG
DNA 2: CCTTCATTCTACGCTGTCAATCGCATCTGTCTTCACTGACCCCCTATGACCTTGGACGGC
B15: NRC3_wobSeed133_DR5_G22A_o1 (dsDNA)
DNA 1: GCCGTCCAAGGTCAATGCTAGATCAGTGAAAGCATTGCGATTGACAGCGTAGAATGAAGG
DNA 2: CCTTCATTCTACGCTGTCAATCGCAATGCTTTCACTGATCTAGCATTGACCTTGGACGGC
B16: NRC3_wobSeed93_DR3_G25A_o1 (dsDNA)
DNA 1: GCAGTCAAAGTTCATCTAGGTAACATAAGATATGCTGCGATTGACAGCGTAGAATGAAGG
DNA 2: CCTTCATTCTACGCTGTCAATCGCAGCATATCTTATGTTACCTAGATGAACTTTGACTGC
B17: NRC3_wobSeed45_DR1_G4A_o1 (dsDNA)
DNA 1: GCTATCAAAGTTCAAAGGTAACGTAAGTATCCACACGCGATTGACAGCGTAGAATGAAGG
DNA 2: CCTTCATTCTACGCTGTCAATCGCGTGTGGATACTTACGTTACCTTTGAACTTTGATAGC
B18: NRC3_wobSeed100_DR4_G16T_o1 (dsDNA)
DNA 1: GCCCTACTGGGCCACTAAAGGTCATTGATTCAGTGAGCGATTGACAGCGTAGAATGAAGG
DNA 2: CCTTCATTCTACGCTGTCAATCGCTCACTGAATCAATGACCTTTAGTGGCCCAGTAGGGC
B19: NRC3_wobSeed100_DR4_T8G_o1 (dsDNA)
DNA 1: B18 DNA 1 with T8G, T16G
DNA 2: B18 DNA 2 with A45C, A53C
B20: NRC3_wobSeed114_DR4_G9A_o1 (dsDNA)
DNA 1: GCAATACAAGGTCATCGTAGGCCAGAGTACGCACAGGCGATTGACAGCGTAGAATGAAGG
DNA 2: CCTTCATTCTACGCTGTCAATCGCCTGTGCGTACTCTGGCCTACGATGACCTTGTATTGC
B21: NRC3_wobSeed64_DR2_G5C_o1 (dsDNA)
DNA 1: GCTACCCTAGGTCATTGGGCCAGTATAGTACGCATCGCGATTGACAGCGTAGAATGAAGG
DNA 2: CCTTCATTCTACGCTGTCAATCGCGATGCGTACTATACTGGCCCAATGACCTAGGGTAGC
B22: NRC3_wobSeed40_DR1_G5C_o1 (dsDNA)
DNA 1: GCTACCCTAGGTCATGGGCCAGTATACCACGCGAACGCGATTGACAGCGTAGAATGAAGG
DNA 2: CCTTCATTCTACGCTGTCAATCGCGTTCGCGTGGTATACTGGCCCATGACCTAGGGTAGC
B23: NRC3_wobSeed116_DR4_C16T_o1 (dsDNA)
DNA 1: GCAGAATGAGGTTACTAAAGATCAGGGAAACGCTTGGCGATTGACAGCGTAGAATGAAGG
DNA 2: CCTTCATTCTACGCTGTCAATCGCCAAGCGTTTCCCTGATCTTTAGTAACCTCATTCTGC
B24: NRC3_wobSeed116_DR4_A9G_o1 (dsDNA)
DNA 1: B23 DNA 1 with A9G, T16C
DNA 2: B23 DNA 2 with A45G, T52C
B25: NRC3_wobSeed73_DR3_A5C_o1 (dsDNA)
DNA 1: GCCACACTAGGTCACAGAGGTCAAAGTCCGTGCGTAGCGATTGACAGCGTAGAATGAAGG
DNA 2: CCTTCATTCTACGCTGTCAATCGCTACGCACGGACTTTGACCTCTGTGACCTAGTGTGGC
B26: NRC3_wobSeed101_DR4_G27T_o1 (dsDNA)
DNA 1: GCCCTTACGGGTCACTCCAGGTTATATCATCGGAGTGCGATTGACAGCGTAGAATGAAGG
DNA 2: CCTTCATTCTACGCTGTCAATCGCACTCCGATGATATAACCTGGAGTGACCCGTAAGGGC
B27: NRC3_wobSeed117_DR4_A18G_o1 (dsDNA)
DNA 1: GCCGTCAAAGTTCAACTGAGGTAACGTAAAGCACGCGCGATTGACAGCGTAGAATGAAGG
DNA 2: CCTTCATTCTACGCTGTCAATCGCGCGTGCTTTACGTTACCTCAGTTGAACTTTGACGGC
B28: NRC3_wobSeed97_DR4_G16A_o1 (dsDNA)
DNA 1: GCCAAACTAGGTCACAAAAGGTCAAAGTCGAATGACGCGATTGACAGCGTAGAATGAAGG
DNA 2: CCTTCATTCTACGCTGTCAATCGCGTCATTCGACTTTGACCTTTTGTGACCTAGTTTGGC

Assays:
Assay in all cases: no ligand; PBM; 270 nM : 90 nM RXRa; PBS pH 7.4, 2% milk, 0.02% Triton X-100, 1 mM DTT, BSA, 0.4 mg/ml salmon testes DNA
LXRa:RXRa = LXRa:RXRa (Homo sapiens, UniProt Q13133;P19793 full;full); conditions: tags: His kept;His cleaved; copies: 1;1; label: surface-attached array probe
Procedure, shortened: (§1)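 Ligand-free nuclear receptor dimers were bound for 1 h to custom Agilent 4×180K protein-binding microarrays. Detection used antibodies against each partner (one per run). Binding z-scores rest on regression-normalized fluorescence, with random background probes as the reference.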

LXRb:RXRa = LXRb:RXRa (Homo sapiens, UniProt P55055;P19793 full;full); conditions: tags: His kept;His cleaved; copies: 1;1; label: surface-attached array probe
Procedure, shortened: as §1

VDR:RXRa = VDR:RXRa (Homo sapiens, UniProt P11473;P19793 full;full); conditions: tags: His kept;His cleaved; copies: 1;1; label: surface-attached array probe
Procedure, shortened: as §1

PPARa:RXRa = PPARa:RXRa (Homo sapiens, UniProt Q07869;P19793 full;full); conditions: tags: GST kept;His cleaved; copies: 1;1; label: surface-attached array probe
Procedure, shortened: as §1

FXR:RXRa = FXR:RXRa (Homo sapiens, UniProt Q96RI1;P19793 full;full); conditions: tags: His kept;His cleaved; copies: 1;1; label: surface-attached array probe
Procedure, shortened: as §1

RARg:RXRa = RARg:RXRa (Homo sapiens, UniProt P13631;P19793 full;full); conditions: tags: His kept;His cleaved; copies: 1;1; label: surface-attached array probe
Procedure, shortened: as §1

Sequence of LXRa:RXRa (Q13133 whole entry, chain 1 of 2): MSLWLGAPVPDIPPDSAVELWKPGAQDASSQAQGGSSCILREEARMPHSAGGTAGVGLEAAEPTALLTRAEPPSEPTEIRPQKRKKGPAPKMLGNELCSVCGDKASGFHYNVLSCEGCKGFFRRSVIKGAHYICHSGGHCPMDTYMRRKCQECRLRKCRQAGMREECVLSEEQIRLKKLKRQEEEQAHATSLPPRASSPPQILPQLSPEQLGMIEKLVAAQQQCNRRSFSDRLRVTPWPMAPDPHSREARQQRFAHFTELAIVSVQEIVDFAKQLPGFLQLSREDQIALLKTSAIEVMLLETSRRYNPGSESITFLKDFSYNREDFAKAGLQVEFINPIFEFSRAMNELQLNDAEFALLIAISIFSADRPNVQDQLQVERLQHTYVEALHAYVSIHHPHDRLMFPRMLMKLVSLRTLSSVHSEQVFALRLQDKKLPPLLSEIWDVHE
Sequence of LXRa:RXRa (P19793 whole entry, chain 2 of 2): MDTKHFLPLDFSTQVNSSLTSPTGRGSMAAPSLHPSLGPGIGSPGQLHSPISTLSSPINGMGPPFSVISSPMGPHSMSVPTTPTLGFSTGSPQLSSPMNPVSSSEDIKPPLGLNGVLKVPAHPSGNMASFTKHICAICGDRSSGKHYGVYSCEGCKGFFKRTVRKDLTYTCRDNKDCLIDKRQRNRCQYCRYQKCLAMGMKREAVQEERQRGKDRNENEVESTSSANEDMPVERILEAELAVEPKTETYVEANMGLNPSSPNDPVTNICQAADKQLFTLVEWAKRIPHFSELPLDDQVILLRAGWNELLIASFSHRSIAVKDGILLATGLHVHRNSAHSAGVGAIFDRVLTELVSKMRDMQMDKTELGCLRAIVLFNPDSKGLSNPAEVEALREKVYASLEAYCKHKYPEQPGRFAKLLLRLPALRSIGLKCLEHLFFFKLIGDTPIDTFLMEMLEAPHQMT
Sequence of VDR:RXRa (P11473 whole entry, chain 1 of 2): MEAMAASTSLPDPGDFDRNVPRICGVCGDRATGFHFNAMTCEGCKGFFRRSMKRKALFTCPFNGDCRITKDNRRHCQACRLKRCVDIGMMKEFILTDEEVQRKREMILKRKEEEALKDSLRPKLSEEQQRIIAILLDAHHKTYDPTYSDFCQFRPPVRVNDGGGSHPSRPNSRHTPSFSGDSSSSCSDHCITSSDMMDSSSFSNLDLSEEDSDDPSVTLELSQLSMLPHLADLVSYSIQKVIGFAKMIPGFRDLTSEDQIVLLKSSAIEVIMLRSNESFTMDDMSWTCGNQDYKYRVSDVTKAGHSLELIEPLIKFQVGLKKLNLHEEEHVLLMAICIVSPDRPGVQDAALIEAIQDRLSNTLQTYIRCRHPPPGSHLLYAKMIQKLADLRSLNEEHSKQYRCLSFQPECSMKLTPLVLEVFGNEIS
Sequence of VDR:RXRa (P19793 whole entry, chain 2 of 2): as the sequence (P19793 whole entry, chain 2 of 2) above
Sequence of LXRb:RXRa (P55055 whole entry, chain 1 of 2): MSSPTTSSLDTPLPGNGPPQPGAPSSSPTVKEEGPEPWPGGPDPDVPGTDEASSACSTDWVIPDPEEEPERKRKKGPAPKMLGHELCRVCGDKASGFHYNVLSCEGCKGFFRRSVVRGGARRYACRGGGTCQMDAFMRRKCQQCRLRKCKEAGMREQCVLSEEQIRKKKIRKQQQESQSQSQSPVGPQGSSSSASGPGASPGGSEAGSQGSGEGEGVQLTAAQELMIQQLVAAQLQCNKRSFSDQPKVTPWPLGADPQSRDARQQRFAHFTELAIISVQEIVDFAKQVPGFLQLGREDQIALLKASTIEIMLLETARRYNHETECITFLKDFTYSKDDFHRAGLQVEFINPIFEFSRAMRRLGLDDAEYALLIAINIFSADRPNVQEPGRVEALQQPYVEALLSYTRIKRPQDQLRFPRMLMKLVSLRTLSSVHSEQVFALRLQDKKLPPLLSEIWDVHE
Sequence of LXRb:RXRa (P19793 whole entry, chain 2 of 2): as the sequence (P19793 whole entry, chain 2 of 2) above
Sequence of FXR:RXRa (Q96RI1 whole entry, chain 1 of 2): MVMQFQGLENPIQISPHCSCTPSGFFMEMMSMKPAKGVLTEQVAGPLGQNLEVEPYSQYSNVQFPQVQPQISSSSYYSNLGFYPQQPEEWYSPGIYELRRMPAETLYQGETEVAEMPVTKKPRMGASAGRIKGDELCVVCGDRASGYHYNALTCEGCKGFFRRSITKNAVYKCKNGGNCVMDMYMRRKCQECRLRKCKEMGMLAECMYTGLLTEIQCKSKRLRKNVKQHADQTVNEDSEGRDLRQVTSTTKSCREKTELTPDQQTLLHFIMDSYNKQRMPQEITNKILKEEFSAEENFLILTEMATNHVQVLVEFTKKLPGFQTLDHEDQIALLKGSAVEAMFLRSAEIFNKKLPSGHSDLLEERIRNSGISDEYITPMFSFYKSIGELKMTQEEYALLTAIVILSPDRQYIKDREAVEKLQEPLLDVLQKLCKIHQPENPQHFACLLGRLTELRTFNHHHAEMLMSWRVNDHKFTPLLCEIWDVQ
Sequence of FXR:RXRa (P19793 whole entry, chain 2 of 2): as the sequence (P19793 whole entry, chain 2 of 2) above
Sequence of RARg:RXRa (P13631 whole entry, chain 1 of 2): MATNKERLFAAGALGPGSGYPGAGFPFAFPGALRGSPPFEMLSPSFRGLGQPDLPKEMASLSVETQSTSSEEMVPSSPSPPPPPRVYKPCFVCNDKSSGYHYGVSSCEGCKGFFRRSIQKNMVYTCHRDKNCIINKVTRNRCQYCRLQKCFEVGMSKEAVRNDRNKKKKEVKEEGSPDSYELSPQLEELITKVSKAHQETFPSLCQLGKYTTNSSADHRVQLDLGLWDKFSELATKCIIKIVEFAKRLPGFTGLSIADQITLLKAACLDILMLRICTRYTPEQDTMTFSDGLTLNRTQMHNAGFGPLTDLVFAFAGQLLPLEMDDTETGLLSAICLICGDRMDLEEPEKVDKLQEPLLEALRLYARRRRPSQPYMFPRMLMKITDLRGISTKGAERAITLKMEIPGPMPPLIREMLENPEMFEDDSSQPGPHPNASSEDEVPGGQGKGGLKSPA
Sequence of RARg:RXRa (P19793 whole entry, chain 2 of 2): as the sequence (P19793 whole entry, chain 2 of 2) above
Sequence of PPARa:RXRa (Q07869 whole entry, chain 1 of 2): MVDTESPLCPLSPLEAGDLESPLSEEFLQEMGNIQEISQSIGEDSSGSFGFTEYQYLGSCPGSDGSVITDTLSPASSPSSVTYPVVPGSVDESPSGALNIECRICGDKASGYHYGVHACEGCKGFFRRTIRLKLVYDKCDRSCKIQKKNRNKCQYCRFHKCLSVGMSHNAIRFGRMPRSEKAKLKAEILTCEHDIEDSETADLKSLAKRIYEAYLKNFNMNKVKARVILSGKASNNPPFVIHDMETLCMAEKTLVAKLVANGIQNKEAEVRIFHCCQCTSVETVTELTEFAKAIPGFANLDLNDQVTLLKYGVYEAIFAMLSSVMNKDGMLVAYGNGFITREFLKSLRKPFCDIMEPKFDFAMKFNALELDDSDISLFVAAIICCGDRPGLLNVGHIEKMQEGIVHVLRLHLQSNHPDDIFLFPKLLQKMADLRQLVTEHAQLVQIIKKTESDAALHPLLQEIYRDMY
Sequence of PPARa:RXRa (P19793 whole entry, chain 2 of 2): as the sequence (P19793 whole entry, chain 2 of 2) above

Binder | binding signal (LXRa:RXRa) | other results
B1 | 4.16 PBM z-score against 500 random probes | –
B2 | 6.74 PBM z-score against 500 random probes | –
B3 | – | binding signal (LXRb:RXRa): -0.83 PBM z-score against 500 random probes; binding signal (VDR:RXRa): -0.48 PBM z-score against 500 random probes; binding signal (PPARa:RXRa): -0.53 PBM z-score against 500 random probes
B4 | 7.02 PBM z-score against 500 random probes | –
B5 | 7.01 PBM z-score against 500 random probes | –
B6 | 6.81 PBM z-score against 500 random probes | –
B7 | 6.72 PBM z-score against 500 random probes | –
B8 | 4.28 PBM z-score against 500 random probes | –
B9 | – | binding signal (FXR:RXRa): -0.13 PBM z-score against 500 random probes; binding signal (LXRb:RXRa): -1.23 PBM z-score against 500 random probes; binding signal (VDR:RXRa): -1.03 PBM z-score against 500 random probes
B10 | 4.22 PBM z-score against 500 random probes | –
B11 | 6.64 PBM z-score against 500 random probes | –
B12 | – | binding signal (LXRb:RXRa): -1.05 PBM z-score against 500 random probes; binding signal (VDR:RXRa): -0.87 PBM z-score against 500 random probes
B13 | 4.25 PBM z-score against 500 random probes | –
B14 | – | binding signal (FXR:RXRa): 8.21 PBM z-score against 500 random probes; binding signal (LXRb:RXRa): 7.12 PBM z-score against 500 random probes; binding signal (VDR:RXRa): 7.46 PBM z-score against 500 random probes; binding signal (RARg:RXRa): 7.6 PBM z-score against 500 random probes
B15 | 4.19 PBM z-score against 500 random probes | –
B16 | 6.61 PBM z-score against 500 random probes | –
B17 | 7.29 PBM z-score against 500 random probes | –
B18 | 7.03 PBM z-score against 500 random probes | –
B19 | 6.67 PBM z-score against 500 random probes | –
B20 | 7.16 PBM z-score against 500 random probes | –
B21 | 6.89 PBM z-score against 500 random probes | –
B22 | 6.6 PBM z-score against 500 random probes | –
B23 | 8.1 PBM z-score against 500 random probes | –
B24 | 7.02 PBM z-score against 500 random probes | –
B25 | 7.06 PBM z-score against 500 random probes | –
B26 | 8.05 PBM z-score against 500 random probes | –
B27 | 6.87 PBM z-score against 500 random probes | –
B28 | 8.65 PBM z-score against 500 random probes | –
